Results taken from patent US20220411488A1 (APHARMA, published 2022).
Residue numbers refer to the chain shown, from its start.

B1: monoclonal antibody 9E1 against ITIH1 (antibody, V domains shown)
VH: EVQLQQSGTVLARPGASVKMSCRASGYSFTSYWMHWVKQRPGQGLEWIGSIYPGNTDTNYNQKFKGKAKLTAVTSASTAYMELSSLTNEDSAVYYCTRYGTSEGFAYWGQGTLVTVSA
VL: DIVMTQSPASLAVSLGQRATISCRASQSVSTSSYSYMHWYQQKPGQPPKLLIKYASNLESGVPARFSGSGSGTDFTLNIHPVEEEDSATYYCQHSWEIPPTFGGGTKLEIK
notes: Mouse (BALB/c) hybridoma monoclonal antibody made by AbClon Inc; also called antibody clone 9E1; 9E1 clonal antibody
B2: monoclonal antibody 5D6 against ITIH1 (antibody, V domains shown)
VH: EVQLQQSGAELVKPGTSVKMSCKASGYTFTSYWMHWVRQRPGQGLEWIGDIYPGTDSTNYNEKFKSKATLTVDTSSSTAYMQLSSLTSEDSAVYYCSRSGDYYDYWGQGTTVTVSS
VL: B1 VL with M4L, S87T, P100W
notes: Mouse (BALB/c) hybridoma monoclonal antibody made by AbClon Inc; also called antibody clone 5D6; 5D6 clonal antibody

Molecular target: T1, human ITIH-1 antigen (inter-alpha trypsin inhibitor heavy chain 1) (human)
T1 construct: Produced in HEK293F cells and purified; used as the immunogen; also called SHAP
Assay: biolayer interferometry, AR2G biosensor, antibody as ligand
Procedure: 5D6 and 9E1 were bound to ITIH1 with high affinity, as shown in the table below, and affinity was determined by AbClon Inc. using an AR2G (Bio-Sensor).

T1 sequence (chain, as listed by the source limits assumed): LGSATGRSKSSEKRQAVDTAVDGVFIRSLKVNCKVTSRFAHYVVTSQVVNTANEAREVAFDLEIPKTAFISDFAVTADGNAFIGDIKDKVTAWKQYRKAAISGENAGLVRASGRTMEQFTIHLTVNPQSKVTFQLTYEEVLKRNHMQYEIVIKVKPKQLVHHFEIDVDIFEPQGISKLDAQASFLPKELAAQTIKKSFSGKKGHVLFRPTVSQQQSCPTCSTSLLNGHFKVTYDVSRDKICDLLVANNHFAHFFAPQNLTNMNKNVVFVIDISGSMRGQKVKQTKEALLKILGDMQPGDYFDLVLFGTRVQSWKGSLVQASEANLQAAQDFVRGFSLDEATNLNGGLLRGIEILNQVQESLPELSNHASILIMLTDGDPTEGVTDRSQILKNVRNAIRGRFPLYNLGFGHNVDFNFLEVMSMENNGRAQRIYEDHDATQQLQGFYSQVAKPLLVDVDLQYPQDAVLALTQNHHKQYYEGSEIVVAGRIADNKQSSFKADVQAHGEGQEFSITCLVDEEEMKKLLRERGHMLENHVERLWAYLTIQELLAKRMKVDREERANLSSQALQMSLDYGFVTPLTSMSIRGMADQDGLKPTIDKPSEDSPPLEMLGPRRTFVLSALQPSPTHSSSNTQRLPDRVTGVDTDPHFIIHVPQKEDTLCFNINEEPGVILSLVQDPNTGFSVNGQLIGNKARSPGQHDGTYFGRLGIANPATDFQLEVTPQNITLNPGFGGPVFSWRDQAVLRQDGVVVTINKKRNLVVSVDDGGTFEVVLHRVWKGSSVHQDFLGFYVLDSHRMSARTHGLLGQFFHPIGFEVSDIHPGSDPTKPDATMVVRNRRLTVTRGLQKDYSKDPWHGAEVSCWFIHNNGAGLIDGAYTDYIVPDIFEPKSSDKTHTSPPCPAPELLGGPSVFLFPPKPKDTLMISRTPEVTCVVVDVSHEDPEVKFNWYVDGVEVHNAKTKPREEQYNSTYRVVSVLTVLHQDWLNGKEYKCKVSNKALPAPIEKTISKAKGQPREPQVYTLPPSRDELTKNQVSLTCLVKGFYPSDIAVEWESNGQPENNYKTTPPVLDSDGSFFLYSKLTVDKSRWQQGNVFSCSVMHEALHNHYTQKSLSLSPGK

Binder | Kd [nM] | koff [s⁻¹] | kon [M⁻¹ s⁻¹]
B1 | 0.133 | 4.45e-05 | 334000
B2 | 0.243 | 7.05e-05 | 291000
